Data from patent CN113402607A (BEIJING EASTERN BIOTECH CO LTD, dated 2021).
Where a chain is given by its changes, count along the chain named.

B1: 抗LAP单克隆抗体 A-5 (全抗, mouse IgG2a / mouse Ck) (antibody, V domains shown)
VH: EVQLQQSGAVLVRPGDSVKLSCKASGYSFTRSWINWVKQRPGQGLEWIGNIYPSDSYTNYNQKFKDKATLTVDKSSSTAYMQLRSPTSEDSAVYYCTNYYLYYFDYWGQGTTLTVSS
VL: DIVLTQSPSSLAVSTGEKVTMSCKSSQSLLNSRTRKSYLAWYQQKPGQSPKLLIYWTSIRESGVPDRFTGNGSGTDFTLTISSVQAEDLAVYYCKQSYNLFTFGGGTKLEMKR
notes: Full antibody made in HEK293E from vector pTSE
B2: 抗LAP单克隆抗体 A-1 (全抗, mouse IgG2a / mouse Ck) (antibody, V domains shown)
VH: EVQLEQSGPELKKPGETVKISCKASGYTFTSYGMNWVKQAPGKALKWMGWINTYTGEPTYADDFKGRFAYSLEATANTAYLQIYNLKNEDTATYFCARSGRYTRPLYYIMDFWGQGTSVTVSS
VL: not shown
notes: Full antibody made in HEK293E from vector pTSE; also called A-1抗体
B3: 抗LAP单克隆抗体 A-6 (全抗, mouse IgG2a / mouse Ck) (antibody, V domains shown)
VH: QVKLQESGPELVKPGASVKISCKASGYTFTDYNMHWVKQSHGKSLEWIGYFYPYNGGTGYKQKFKSKATLTVDNSSSTAYMELRSLTSEDSAVYYCARNHYYYYAMDYWGQGTSVTVSS
VL: DIVMTQTPSSLAVSAGEKVTMSCKSSQSLLNSRTRKNYLAWYQQKPGQSPKLLIYWASTRESGVPDRFTGSGSGTDFTLTISSVQAEDLAVYYCKQSYNLPWTFGGGTKLEIKA
notes: as for B1
B4: 抗LAP单克隆抗体 A-4 (全抗, mouse IgG2a / mouse Ck) (antibody, V domains shown)
VH: EVKLQESGPGLVAPSQSLSITCTVSGFSLTTYGVSWVRQPPGKGLEWLGIIWGDGTTIYQSGLISRLSISKDDSKSQVFLKLSSLQTDDTATYYCAKHYFVMDYWGQGTSVTVSS
VL: B1 VL with T15A, S22N, T34I, S37N, T57A, I59T, N71S, F101W, M111I, R113A
notes: as for B1
B5: 抗LAP单克隆抗体 A-3 (全抗, mouse IgG2a / mouse Ck) (antibody, V domains shown)
VH: EVKLQESGAELVMPGASVKMSCKASGYTFTDYWMHWVKQRPGQGLEWIGAIDTSDSYTSYNQKFKGKATLTVDESSSTAYMQLSSLTSEDSAVYYCARKALSGYFDVWGAGTTVTVSS
VL: DIVLTQTPSSLSASLGGKVTITCKASQDIYKYIAWYQHKPGKGPRLLIHYTSTLQPGIPSRFSGSGSGRDYSFSISNLEPEDIATYYCLQYDNLRTFGGGTKLEIKA
notes: as for B1
B6: 抗LAP单克隆抗体 A-2 (全抗, mouse IgG2a / mouse Ck) (antibody, V domains shown)
VH: EVQLEESGAELVRSGASVKLSCTASGFNFNDYYMHWVKQRPEQGLEWIGWIDPENGDTEYAPKFQVKATMTADTSSNTAYLHLSSLASEDTAVYYCNTPTEDMDYWGQGTSVTVSS
VL: DIVMTQSPSSLAVSAGEKVTMSCKSSQSLFNSRTRKNYLAWYQQKPGQSPKLLIYWASTRGSGVPDRFTGSGSGTDFTLTISSVQAEDLAVYYCKQSYNLLTFGAGTKLELKA
notes: as for B1

The binders below were run against LAP-TGFβ1 overexpressed on cells (过表达LAP-TGFβ1的CHO细胞) (UniProt P01137 30-390, limits assumed) (assay: cell-based or functional assay).
Sequence of LAP-TGFβ1 overexpressed on cells (过表达LAP-TGFβ1的CHO细胞) (P01137 30-390 limits assumed): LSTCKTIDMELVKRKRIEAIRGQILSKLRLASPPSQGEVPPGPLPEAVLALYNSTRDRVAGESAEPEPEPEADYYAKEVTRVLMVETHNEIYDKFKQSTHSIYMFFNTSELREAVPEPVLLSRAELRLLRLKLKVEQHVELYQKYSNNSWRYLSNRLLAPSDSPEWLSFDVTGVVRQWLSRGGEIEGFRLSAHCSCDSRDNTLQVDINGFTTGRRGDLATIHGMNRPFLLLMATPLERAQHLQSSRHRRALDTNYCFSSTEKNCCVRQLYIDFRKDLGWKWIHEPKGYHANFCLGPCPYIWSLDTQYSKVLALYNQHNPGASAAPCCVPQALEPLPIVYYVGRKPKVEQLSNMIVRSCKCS

IC50(μg/ml), 抑制细胞表面TGFβ1的释放 (PAI-LUC Mv.1.lu reporter cells, luciferase) [µg/mL]	Binder
1.69	B1
0.741	B2

Each binder was assayed against LAP-TGFβ1抗原 (coated antigen) (UniProt P01137 30-390, limits assumed) (assay: competition ELISA on coated LAP-TGFβ1; competitor biotin-labelled 28G11 at 1 μg/ml).
Sequence of LAP-TGFβ1抗原 (coated antigen) (P01137 30-390 limits assumed): as above

IC50 [µg/mL]	Binder
0.0557	B3
0.0526	B1
0.00805	B4
0.0972	B2
0.00695	B5
0.0764	B6
